PMC8980812
One block for each binder: values may come before it.

Tests used:
[1] = molecular target: T1, PleC PAS AB-HK (Caulobacter crescentus)
T1 sequence (P37894 whole entry, looked up): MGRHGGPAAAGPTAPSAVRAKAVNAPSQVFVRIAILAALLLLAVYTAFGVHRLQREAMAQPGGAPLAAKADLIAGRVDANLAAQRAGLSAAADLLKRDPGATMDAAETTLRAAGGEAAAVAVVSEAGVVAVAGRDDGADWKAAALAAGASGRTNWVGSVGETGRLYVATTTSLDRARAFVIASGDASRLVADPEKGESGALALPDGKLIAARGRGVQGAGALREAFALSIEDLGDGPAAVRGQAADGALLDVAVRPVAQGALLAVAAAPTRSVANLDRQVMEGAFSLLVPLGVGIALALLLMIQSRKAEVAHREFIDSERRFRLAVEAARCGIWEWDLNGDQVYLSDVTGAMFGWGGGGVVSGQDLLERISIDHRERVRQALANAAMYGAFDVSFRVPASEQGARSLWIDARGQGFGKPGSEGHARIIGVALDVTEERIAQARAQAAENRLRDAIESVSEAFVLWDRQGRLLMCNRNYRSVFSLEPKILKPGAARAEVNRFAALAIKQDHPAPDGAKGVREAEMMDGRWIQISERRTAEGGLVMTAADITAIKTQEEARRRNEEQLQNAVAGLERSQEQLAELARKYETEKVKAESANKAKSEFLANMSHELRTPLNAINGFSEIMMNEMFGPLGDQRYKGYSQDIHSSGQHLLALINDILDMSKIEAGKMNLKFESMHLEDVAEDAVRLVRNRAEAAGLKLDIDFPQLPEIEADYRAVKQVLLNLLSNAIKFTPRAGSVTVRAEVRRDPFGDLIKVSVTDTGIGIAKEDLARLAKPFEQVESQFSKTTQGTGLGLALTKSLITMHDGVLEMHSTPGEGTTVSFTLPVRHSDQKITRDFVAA

[2] = molecular target: PleC-CcaS chimeric histidine kinase (chimera AB-1) (Caulobacter crescentus | not stated)
[3] = molecular target: PleC-CcaS chimeric histidine kinase (chimera AB-1) (Caulobacter crescentus | not stated); remark: listed apart in the source

ADP production IC50 (coupled enzyme assay of PleC PAS AB-HK) relative to that of PodJ(1–635) [1]: 2 fold
B1: PodJ(250–635) (domain or fragment)
chain: LGAVETANPATGVQEGLDSLAATLTQKMEAARLEMAAKLRESADGRFDRMERKLGEMAAHVQAAEQRSAQAIERMGREIVGVADAFNRRVHAAESRNASAIEQVGGEVARIAASVEHKLNRADSVQAQALEKLGGEIARITEKLAERIGSAERRNALAIDDVGEQVARVTERLNQRHERSSQELVDRIRQSEERTLRMLEEAREKIDSRLSEAQRKLEAAPPSPPPAQAPAPVATAQRPVPPAASPFEDNYFSQAASFSTSEDEADAFDAPPAPARSFEVAEFPAAEPEEPAFAHDDYAIADGFEPESPRYEVEPEVSDFAPAEPSRPMSTRDIIEQARAAARAAAASEGKGGKAKSAKKEKASKASGSLFSGFGGFSTKKSKARL

mCherry expression from the cpcG2 promoter through PleC-CcaS and CcaR in E. coli [2]: 3 fold
B2: PodJ(250–635) expressed in E. coli (domain or fragment)
chain: B1 chain

mCherry expression from the cpcG2 promoter through PleC-CcaS and CcaR in E. coli, relative to the empty vector control [3]: 10 fold
B3: YFP-PodJ (full-length PodJL) (natural protein)
chain: MTAASPWSVKGIDPKAREVAKDLARRSGMTLGEWLNRMIIEGDGQTADPRLAGDDVPNRAYLEIVKDDAPPRIEIAEHPADEVGRVALALDRLTQRIEAAEGRNAAAITGIDHSVRDALTRLGASEREQIAVAARFEGAVDELKTEQARATERLRRIESEAAGPRSAEALRALEGALGKVAGHLYEGEARTREAIATLEAKLNQQSSGDPSALVEAVVARLGERLEAAETRTSDALRELGASFQALDQRLGAVETANPATGVQEGLDSLAATLTQKMEAARLEMAAKLRESADGRFDRMERKLGEMAAHVQAAEQRSAQAIERMGREIVGVADAFNRRVHAAESRNASAIEQVGGEVARIAASVEHKLNRADSVQAQALEKLGGEIARITEKLAERIGSAERRNALAIDDVGEQVARVTERLNQRHERSSQELVDRIRQSEERTLRMLEEAREKIDSRLSEAQRKLEAAPPSPPPAQAPAPVATAQRPVPPAASPFEDNYFSQAASFSTSEDEADAFDAPPAPARSFEVAEFPAAEPEEPAFAHDDYAIADGFEPESPRYEVEPEVSDFAPAEPSRPMSTRDIIEQARAAARAAAASEGKGGKAKSAKKEKASKASGSLFSGFGGFSTKKSKARLGATVTTALVVFAAAGALGAGVGGLLLLNTDDGNNSPSRVAQAIAGRKADVEVNGPEADTTPGAPRAAVALTTGKVVPAEVEAPAAPPTNEAKALFEDAVRKIESGDRSGVELLKRAANGGYPAAQFYLSKMYEGGKNGVKVDMAEARRWSERAANGGDPRAMHNLALYYFKGEGGPRNSTTAASWFRKAADMGLVDSQFNLAQLYESGLGVSQNPAEAYKWYVIAGRAGDSTARGRATALRSQLTAEAQQTADRSALAFRPQTQVQTASLSSAAPAAANANLGVAQRVLSQLGYYQGPRDGVSSPALRMAIAAYQRDQGLPPTGSVDAETLNRLSVYAR
